From publication PMC3985513 (Biochemistry, 2014)
Like-named read-outs stand apart in the source and are kept apart here.

B1: SwH-NOX (heme-nitric oxide/oxygen binding protein from Shewanella woodyi), wild type (natural protein, UniProt B1KIH6 1-182, looked up)
chain: MMGMVFTGLMELIEDEFGYETLDTLLESCELQSEGIYTSVGSYDHQELLQLVVKLSEVSSVPVTELVRLFGKKLFVELIEGHPEIANEMKDSFDLLSKIDSFIHVEVYKLYPQAELPKFTCDRLGDNDIRLHYQSKRPFASFAEGLLDGCAEYFKEDFTISRTPETQDSETDVIFNITRAPR
B2: SwHaCE (H-NOX-associated cyclic-di-GMP processing enzyme from Shewanella woodyi, diguanylate cyclase/phosphodiesterase) (enzyme, UniProt B1KIH5 1-637, looked up)
chain: MSALEDREQVFLRRIDREKRARQQAEQILNEKSKELWNTNQKLQQINEQLDQMVKTRTSELEIAKTNAELESLAHKNAKERFQLAMRATSAGVWERNIDEDAWYFSDRLIALFGYSREELLFGFKNLSFIHNEDKKPLLHVLKNHFRNGKAFDFECRVLTSEGRYKWFWIVGQAVWNDKGEVVRIAGSFSDIDERVENSKLVEKMAHYDHLTMVPNRVLYNQKLDIALSLADKEQSHLAVILIDLNDFKQVNDTLGHSAGDHLLQHIANQFKLNISESDIVARLGGDEFSIVLTNIANRQAVVTKCEQVLEIISRPFYYQKNLIIPKISMGIALYPEYGMTRDELMVNADLAMYKAKGEKHMGSGFQFCEQEHINKNMERTELSSELCEAITENEFFMHFQPIIDLSNGEVTFAEALIRWKHTNKGVLLPEKFISIAEDSGLITRLGKLSIELVAKQIDRMMAAKRLQKLTINISPSHFLSQSFMEDLKEILSVYPKMSSFITIEITEVVFLLNMEVAKKTVIELHDMGITISLDDFGTGYSSFKYLQQLPIDVIKLDCSFIAELDIDPSHRNIASTIIELAHSLEIKVIAEGVETNSQLVFLQDHHCDFAQGSYFFKPLSVIDFLHMQRCISLPAK

What was measured:
[1] = molecular target: B2; test: AUC
[2] = molecular target: B2; test: other fluorescence titration
[3] = molecular target: B2; test: AUC; remark: listed apart in the source
AUC = molecular target: the molecule itself; test: AUC

Row | Binder | stoichiometry N [1] | Kd [2] | stoichiometry N [3] | stoichiometry N (AUC)
1 | B1 | 1 H-NOX per HaCE (2+2) | 2500 to 3000 nM | 1 H-NOX per HaCE (2+2) | 
2 | B2 |  |  |  | 2
